Reference: the supplement of paper PMC10724198
± gives the standard deviation of the averaged measurements.

Test system: Saccharomyces cerevisiae
Test: protein stability index of tFT-peptide fusion (C-terminal peptide) (PSI (0-1 scale)); higher = more stable (slower turnover)
Conditions: genetic background: wild type; temperature: 30 C
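Note: PSI is a weighted mean of sequencing reads over stability bins, variants kept only with over 10 reads, mCherry proximal and sfGFP distal, peptide attached via GGGS linker.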

Sequence | protein stability index
LHSRLPPCRRHV | 0.674 ± 0.021
LHTLPLVLSLPA | 0.534 ± 0.025
LHTSTRPLPPTS | 0.675 ± 0.067
LIFLPPSPLPLS | 0.709 ± 0.085
LIGICCDSGSHC | 0.691 ± 0.057
LIIRTWEQILSP | 0.692 ± 0.058
LILLTVGSPRSG | 0.686 ± 0.013
LIPLVFAPSLVL | 0.769 ± 0.093
LIQKANGRIRRG | 0.763 ± 0.02
LIRRTECPRSTS | 0.6782 ± 0.0048
LISLERRGVAGR | 0.657 ± 0.043
LIVFSFLSCPVP | 0.5234 ± 0.0013
LIVWAGACGVSR | 0.611 ± 0.014
LKGVNPVNLHEL | 0.66 ± 0.039
LKKSEKLSNKII | 0.644 ± 0.041
LKPLRTWLSGSA | 0.719 ± 0.019
LKPPEDPCASRV | 0.677 ± 0.021
LKYEGPKYHMKR | 0.691 ± 0.061
LLAGGDVSGVGV | 0.695 ± 0.015
LLCHLSPSSSPI | 0.786 ± 0.068
LLCLKIGASWSK | 0.674 ± 0.028
LLCLVSCFGCWL | 0.585 ± 0.052
LLDGAGGGVGEG | 0.738 ± 0.033
LLDLYTLSRLDP | 0.754 ± 0.043
LLDRGLLSALLA | 0.563 ± 0.034
LLDTSTVTCFER | 0.741 ± 0.01

Sequence | protein stability index
LLFPSPPLPPPL | 0.784 ± 0.15
LLFSTPWVWCLL | 0.623 ± 0.051
LLFTWGGRGCLG | 0.746 ± 0.032
LLGRGVSLFRCG | 0.643 ± 0.3
LLLASSFFTLIL | 0.687 ± 0.043
LLLDIFYWTVQS | 0.615 ± 0.049
LLLDRGISLLLL | 0.607 ± 0.026
LLLLIPCYSPPP | 0.659 ± 0.071
LLLLLPPLPFVP | 0.66 ± 0.035
LLLPPRLPNISP | 0.709 ± 0.044
LLLSPSRLPPAD | 0.676 ± 0.043
LLLTGYGLLPST | 0.676 ± 0.079
LLNAARIGNKGP | 0.663 ± 0.06
LLNIPLVFFSFP | 0.58 ± 0.1
LLNLLLFLLPPS | 0.636 ± 0.031
LLPNLFDSQFRE | 0.756 ± 0.044
LLPPPPLPPPRP | 0.67 ± 0.032
LLPPPPPPSTPT | 0.798 ± 0.083
LLPPPPTPDPGP | 0.645 ± 0.0067
LLPPPSRTPPPS | 0.688 ± 0.02
LLPPSLLSPPPF | 0.696 ± 0.094
LLPRSPLLPPLH | 0.719 ± 0.0048
LLPSPSYPLSPS | 0.751 ± 0.037
LLPTRPAPHLSL | 0.704 ± 0.17
LLRGDVVALRAH | 0.618 ± 0.052
LLRLLYVGVVGR | 0.573 ± 0.027

Sequence | protein stability index
LLRRSNLLHLVL | 0.574 ± 0.049
LLRYKWSRHLVG | 0.47 ± 0.046
LLSLFLLSPSVI | 0.681 ± 0.007
LLSLRSPCSSSR | 0.697 ± 0.066
LLSPLRPPPFAP | 0.698 ± 0.041
LLSVFPLHPGSP | 0.73 ± 0.047
LLVLHVFPLASH | 0.553 ± 0.035
LLVLSTVFNYPI | 0.655 ± 0.071
LLWPVFQCLPLL | 0.729 ± 0.045
LLYPRYFSTGIT | 0.558 ± 0.065
LMHDIRLCSSVV | 0.702 ± 0.074
LMLSGFGSFCVA | 0.659 ± 0.025
LMRFFSCTLSFE | 0.62535 ± 0.00026
LMRSFLHFHLCL | 0.632 ± 0.01
LMVCQKPYCMRI | 0.678 ± 0.0014
LNLISGVRFSLY | 0.675 ± 0.043
LNQHEQKRKNEG | 0.724 ± 0.098
LNRTLCYKCILR | 0.564 ± 0.018
LNSTDMNKKKFK | 0.719 ± 0.0092
LPAEGSTKSRSY | 0.741 ± 0.055
LPAPLLSPPRHF | 0.746 ± 0.072
LPARSLPPPRPP | 0.653 ± 0.0089
LPASSPTEYPPP | 0.713 ± 0.049
LPFFFPPFFITR | 0.532 ± 0.013
LPFLLPLVTPLP | 0.696 ± 0.068
LPFPPSPPLPSP | 0.57 ± 0.0099

Sequence | protein stability index
LPGFTLPSSPSH | 0.702 ± 0.034
LPGGLSPPPFRI | 0.715 ± 0.064
LPGTVELHSSRL | 0.755 ± 0.022
LPHPRLPSPPGP | 0.6858 ± 0.0056
LPILPSPLPPPL | 0.69 ± 0.049
LPIPCPSPPPPR | 0.708 ± 0.052
LPLPPRFRRLYL | 0.7 ± 0.038
LPLPVLPCVPPV | 0.595 ± 0.028
LPLQYPPSLLRL | 0.6655 ± 0.0065
LPLRVPPPPSSH | 0.743 ± 0.085
LPLSGIETSVSR | 0.683 ± 0.03
LPLSSLLRPRHS | 0.684 ± 0.056
LPNLCRLISFGS | 0.646 ± 0.036
LPPAPLLSLPSL | 0.6921 ± 0.0034
LPPCSPLIFYFH | 0.636 ± 0.032
LPPHSAPLAHGP | 0.714 ± 0.065
LPPLAACAPSAV | 0.615 ± 0.051
LPPLAPAPPTTS | 0.617 ± 0.0065
LPPLLAPPVSPL | 0.698 ± 0.039
LPPPLPPATPPP | 0.675 ± 0.16
LPPPPPSSSPSP | 0.7005 ± 0.0067
LPPPPRPLPPSP | 0.696 ± 0.04
LPPPPSFTSPHL | 0.743 ± 0.12
LPPPSLPPLPLF | 0.728 ± 0.065
LPPPSPGLPLSP | 0.6773 ± 0.0059
LPPRAPPTCFPL | 0.658 ± 0.12

Sequence | protein stability index
LPPRPPPPPPPA | 0.62606 ± 2.4e-05
LPPRPTPPPPPP | 0.71 ± 0.056
LPPSNYPCPSGK | 0.706 ± 0.02
LPPSPPDPTPPP | 0.594 ± 0.0095
LPPSQLPPPHLT | 0.662 ± 0.019
LPPSTSPPIRPP | 0.663 ± 0.043
LPPTAPAPPSPP | 0.716 ± 0.086
LPPTLPPPPPAL | 0.724 ± 0.032
LPQAVPCRTPPL | 0.679 ± 0.054
LPQLPNSRRLPL | 0.648 ± 0.049
LPQSSRKEAHHH | 0.78 ± 0.062
LPRELFSQQRFL | 0.713 ± 0.0097
LPRLSPSPRPSR | 0.719 ± 0.008
LPRPPLLTPSCL | 0.746 ± 0.06
LPRSAPLHFPAC | 0.688 ± 0.02
LPSCKVSLASLL | 0.6281 ± 0.0035
LPSLFSPPLFPL | 0.702 ± 0.0017
LPSPPASSPRRS | 0.684 ± 0.025
LPVDPDTIIVVK | 0.663 ± 0.019
LPVFVIGEFLLV | 0.49 ± 0.037
LQEQIHKPPKPQ | 0.72 ± 0.00088
LRAPFGWVKRFL | 0.663 ± 0.069
LRFGGWFLIGLR | 0.583 ± 0.021
LRGPRRAVEGTP | 0.66 ± 0.031
LRIAKSGVGGFA | 0.636 ± 0.029
LRISIEVTNYGP | 0.517 ± 0.021

Sequence | protein stability index
LRIYIKTGAKGV | 0.71448 ± 0.00053
LRKAKRDKRIKI | 0.759 ± 0.075
LRKDVRTRSNTK | 0.806 ± 0.051
LRKGGGVGVWRG | 0.687 ± 0.012
LRLCPAPYIPVL | 0.591 ± 0.012
LRLDFPPARPHS | 0.697 ± 0.044
LRLLCRTRCYRS | 0.666 ± 0.019
LRLPKGVSLVDI | 0.6093 ± 0.0053
LRLPPPLCPLRS | 0.623 ± 0.054
LRLPSHHPLCYF | 0.684 ± 0.011
LRPCAGAVRPSA | 0.724 ± 0.0099
LRPGVRHFRECV | 0.627 ± 0.096
LRPLVRLLHSYP | 0.718 ± 0.031
LRPPPPSAGAPP | 0.708 ± 0.088
LRRPVDPSHIPI | 0.663 ± 0.07
LRRRGHCLRGEL | 0.6313 ± 0.0023
LRRTMRLASASF | 0.831 ± 0.014
LRSCLSIYDCSS | 0.618 ± 0.16
LRSHKIVDQDPF | 0.7235 ± 0.005
LRSPFPTPSDLV | 0.714 ± 0.051
LRSPSDSLALPL | 0.666 ± 0.028
LRVGMWNNVINR | 0.734 ± 0.12
LRVVISWGLDLY | 0.529 ± 0.02
LRWFLTGWPRGE | 0.699 ± 0.16
LRYARAPFPAPP | 0.699 ± 0.024
LSARIGEMVDTW | 0.56 ± 0.027

Sequence | protein stability index
LSARSSFIFSYY | 0.645 ± 0.017
LSDGATDIGCLL | 0.741 ± 0.037
LSDKTALDRPVH | 0.625 ± 0.057
LSDMNHVLKVFL | 0.665 ± 0.054
LSEFFLSAFLSC | 0.712 ± 0.011
LSFFGPPFPISF | 0.74 ± 0.043
LSFPFLFSVPFL | 0.733 ± 0.021
LSGCASGYRPPW | 0.683 ± 0.047
LSGGAVVEVHFL | 0.674 ± 0.011
LSGLLGGGAGTL | 0.678 ± 0.013
LSGLVPSLGCRR | 0.786 ± 0.06
LSGPPVSVQRSF | 0.594 ± 0.03
LSGYLVCSLSLR | 0.695 ± 0.045
LSIIRSPDWVDC | 0.639 ± 0.059
LSLDMVAPTGLA | 0.686 ± 0.014
LSLPTLPLPPPS | 0.7173 ± 0.006
LSLSILFTPSPN | 0.682 ± 0.051
LSLSPPPASPIP | 0.692 ± 0.011
LSPFPLFAPFNF | 0.635 ± 0.039
LSPHSSLTPPPH | 0.616 ± 0.037
LSPLPPDLPDLP | 0.699 ± 0.12
LSPLPPSPPPST | 0.543 ± 0.025
LSPPPPLALTPS | 0.709 ± 0.021
LSPTPSAPPCFG | 0.601 ± 0.043
LSRFLPESVYMS | 0.679 ± 0.011
LSRFPSPPPLSH | 0.701 ± 0.024

Sequence | protein stability index
LSRLRVLLTPIS | 0.56 ± 0.075
LSRVLQAPRRGG | 0.681 ± 0.0075
LSSCLFDPIFLF | 0.783 ± 0.018
LSSQCIVQLFRA | 0.64 ± 0.025
LSSSTHNLDFLQ | 0.698 ± 0.041
LSSTIFHRSCVR | 0.759 ± 0.02
LSTCSFSFFLHT | 0.66 ± 0.019
LSTSLPLSPPPP | 0.652 ± 0.013
LSTTQSKTLNPR | 0.682 ± 0.052
LSVFWRGSLWTL | 0.635 ± 0.023
LSVMACGMGESI | 0.696 ± 0.017
LSVVLARLCQGS | 0.6842 ± 0.0052
LSYGQKARIKRE | 0.703 ± 0.075
LSYPPPPTQPPA | 0.734 ± 0.0083
LTAFFPFSTFFP | 0.714 ± 0.042
LTEFVVFFFFVF | 0.5166 ± 0.0049
LTFILGPPRMWL | 0.669 ± 0.018
LTFSVQCVYFDS | 0.571
LTGESGDRSVGP | 0.657 ± 0.019
LTPGFSRIDRAP | 0.718 ± 0.062
